The text below walks through data of PMC2647295.

For the data set, the target named is MUC1-5TR (unglycosylated, five MUC1 tandem repeats) (UniProt P15941 126-225). As to the kind of experiment: SPR. (In general: Surface plasmon resonance follows binding to a sensor surface in real time, without labels.)
Sequence of MUC1-5TR (unglycosylated, five MUC1 tandem repeats) (P15941 126-225): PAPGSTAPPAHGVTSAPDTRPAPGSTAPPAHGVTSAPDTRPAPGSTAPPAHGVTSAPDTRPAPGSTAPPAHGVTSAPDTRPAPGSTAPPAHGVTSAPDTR
For GAAGTGAAAATGACAGAACACAACA (ssDNA) [5TR1], the affinity, expressed as Kd, was 21 nM.
Under TACTGCATGCACACCACTTCAACTA (ssDNA) [5TR4] stands 69 nM.
In the case of GGCTATAGCACATGGGTAAAACGAC (ssDNA) [5TR2], the affinity, expressed as Kd, was 85.2 nM.
CAAACAATCAAACAGCAGTGGGGTG (ssDNA) [5TR3]: the affinity, expressed as Kd, was 83 nM.
